Assay results from the nanobody polyreactivity screen of Harvey et al. (2022).

Experiment: yeast display, Sf9 membrane polyspecificity reagent, FACS + sequencing; frameworks hold sequencing errors
In short: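 Using colony PCR, genes from sorted yeast display clones were amplified, then sequenced on MiSeq at 2 × 250 and filtered by CDR length. The clones had been stained with 10% biotinylated, detergent-solubilized Sf9 membrane reagent for 1 hour at 4 °C and sorted by FACS into low and high (top ~1%) gates on anti-HA and streptavidin fluorescence. Polyreactivity labels come from the gate of origin.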

Sequence | polyreactivity (PSR sort gate)
QVQLVESGGGLVQAGGSLRLSCAASGNIFSAYAMGWYRQAPGTERELVATITSGGITYYADSVKGRFTISRDNAKNSVYLQKNSLKPEDTAVYYCNADHHGQAEYGYWGHGTQVTVSS | low polyreactivity
QVQLVESGGGLVQAGGSLRLSCAASGNIFSAYTMGWYRQAPGKERELVAAITGGTSTHYADSVKGRFTISRDNAKNTVYLQMNSLKPEDTAVYYCAADQGRYGIIGWDDYWGQGTQVTVSS | low polyreactivity
QVQLVESGGGLVQAGGSLRLSCAASGNIFSDYTMGWYRQAPGEERELVAAISGEGGTTYNADSVKGRFTISRDNAKNTVYLQMNRLKPEDPAVYYCAADGYYHAYDQFFIVYYEYDYWGQGTQVTVSS | low polyreactivity
QVQLVESGGGLVQAGGSLRLSCAASGNIFSGNAMGWYRQAPGKERELVAAISWSGGSTYYADSVKGRFTISRDNAKNTVYLQMNSLKPEDTAVYYCNKDLYADGQYNYDYWGQGTQVTVSS | low polyreactivity
QVQLVESGGGLVQAGGSLRLSCAASGNIFSIYAMGWYRQAPGKERELVARITRVGSTYADSVKGRFTISRDNAKNTVYLQMNSLNPEDTAVYYCAADKNTPHASLDDFNDYDYWGQGTQVTVSS | high polyreactivity
QVQLVESGGGLVQAGGSLRLSCAASGNIFSKYAMGWYRQAPGKERELVAAISRSGGRTYYADSVKGRFTISRDNAKNTVYLQMNSLNPEDTAFYYCNKAQRHYPYDYWGQGTQVTVSS | high polyreactivity
QVQLVESGGGLVQAGGSLRLSCAASGNIFSYYAIGSYRHAPRKEREFVAANDWNGGTTYYADSVKGRFTISRDNAKNTVYLQMNSLKPEDTAVYYCAAEYGTWYIPEGEYWGQGTQVTVSS | high polyreactivity
QVQLVESGGGLVQAGGSLRLSCAASGNIFTIYAMGWYRQAPGKERELVAAIDSDGTTYYADSVKGRFTISRYNAKNTVYLQMNSLKPEDTAVYYCAAGGRSVRYNYWGQGTQVTVSS | high polyreactivity
QVQLVESGGGLVQAGGSLRLSCAASGNIFTKYAMGWYRPAPGKERELVAAITWSGGSTYYADSVKGRFTISRDNAKNTVYLRMNSLKPEDTAVYYCATAHGFRRDKPYDYWGQGTQVTVSS | high polyreactivity
QVQLVESGGGLVQAGGSLRLSCAASGNIFTYYAMGWYRQAPGKERELVAAIRWRSGSTYYADSVKGRFTISRDNAKNTVYLQMNSLKPEDTAVYYCAADGTPYEYDYWGHGTQVTVSS | low polyreactivity
QVQLVESGGGLVQAGGSLRLSCAASGNIFTYYVMGWYRQAPGKQRELVAAISRRGGSTYYADSVKGRFIISRDNAKHTVYLQMNSLKPEDTAVYYCAKKYPRDMDYWGQGTQVTVSS | high polyreactivity
QVQLVESGGGLVQAGGSLRLSCAASGNIFVGNDMGWYRQAPGKERELVAAISSGDTTSYADSVKGRFTISRDNAKNTVYLQMNSLKPEDTAVYYCNTDAPYLLWFTNRYDYWGQGTQVTVSS | low polyreactivity
QVQLVESGGGLVQAGGSLRLSCAASGNIFVPNAMGWYRQAPGKERELVAAIRRGGSTNYADSVKGRFTISRDNAKNTVYLQMNSLKPEDTAVYYCAAYYTYLYHYGTFKIYNYWGQGTQVTVSS | low polyreactivity
QVQLVESGGGLVQAGGSLRLSCAASGNIFWLNAMGWYRQAPGKEREFVADITWSTGSTYYADSVKGRFTISRDNAKNTVYLQMNSLKPEDTAVYYCAADDGYFNYLILRFKYLYDYWGQGTQVTVSS | low polyreactivity
QVQLVESGGGLVQAGGSLRLSCAASGNIFWWNAMGWYREATRKERELVAAITSDSTTYYADSVKGRFTISRDNAKNTVYLQMKSLKPEDTAVYYCAAYSYGGQGVDYGYWGQGTQVTVSS | low polyreactivity
QVQLVESGGGLVQAGGSLRLSCAASGNIFYANDMGWYIQAPGKERELVAAITGSGGSTYYADSVKGRFTISRDNAKNTVYLQMDSLKPEDTAVYYCATPYDIQWASESHDSWGQGTQVTVSS | low polyreactivity
QVQLVESGGGLVQAGGSLRLSCAASGNIFYAYDMGWYRQAPGKERELVAAITNGDSTDYADSVKGRFTISRDNAKNTVYLQMNSLKPEDTAVYYCATDIHSVHNNRDKHDYDYWGQGTQVTVSS | low polyreactivity
QVQLVESGGGLVQAGGSLRLSCAASGNIFYINTMGWYRQEPGKERELVDAIDASDGSTYYADSVKGRFTISRDNAKNTVYLQMNSLKPEDTAVYYFASRRGYDSVYYFYTLWYYYWGQGTQVTVSS | low polyreactivity
QVQLVESGGGLVQAGGSLRLSCAASGNIFYLYAMGCYRQAPGKEREFSTSYADSVKGRFTISRDNAKNTVYLQMNSLKPEDTAVYYCAAYKSRGPYYYLFDYWGQGTQVTVSS | low polyreactivity
QVQLVESGGGLVQAGGSLRLSCAASGNIFYRNGMGWYRQAPGKEREFVAAISRRGGSTYYADSVKGRFTISRDNAKNTVYLQMNSLKPEDTAVYYCATRYWPTNKGEYWGQGTQVTVSS | high polyreactivity
QVQLVESGGGLVQAGGSLRLSCAASGNIFYSYAMGWYRQAPGKERELVAAISSSGGRTYYADSVKGRFTISRDNAKNTVYLQMNSLKPEDTAVYYCNAYVQVLRYVFGRPTVYPYDYWGQGTQVTVSS | high polyreactivity
QVQLVESGGGLVQAGGSLRLSCAASGNIFYTNAMGWYRQAPGKERELVAAISRSGGRTYYADSVKGRFTISRDNAKNTVYLQMNSLKPEDTAVYYCAKQLYSPYKQRGYRLSPYEYWGQGTQVTVSS | low polyreactivity

Sequence | polyreactivity (PSR sort gate)
QVQLVESGGGLVQAGGSLRLSCAASGNIFYVYLMGWYRQAPGKERELVASITSGASTYYADSVKGRFTISRDNAKNTVYLQMNSLKPEDTAVYYCAAEALGVAGDYSTLYIYDYWGQGTQVTVSS | low polyreactivity
QVQLVESGGGLVQAGGSLRLSCAASGNIFYYYAMGWYRQAPGKERELVADITSGGDTDYADSVKGRFTISRDNAKNTVYLQMNSLKPEDTAVYYCNAEYYFHVTYDYWGQGTQVTVSS | low polyreactivity
QVQLVESGGGLVQAGGSLRLSCAASGNIIDFYAMGWYRQAPGKERELVAAITSGGSTNFADSVKGRFTISRDNAKNTVYLQMNSLKPEDTAVYYCAARQWFSHRRWGGSRYDYWGQGTQVTVSS | high polyreactivity
QVQLVESGGGLVQAGGSLRLSCAASGNILIGNVMGWYRPAPGKERELVAAITSGGDTYYADSVKGRFTITRDNAKNTVYLQMNSLKPEDTAVYYCAADRPGQPKYEYWGQGTQVTVSS | low polyreactivity
QVQLVESGGGLVQAGGSLRLSCAASGNISPGNVMGWYRQAPGKERELVAAITISGGSTYYADSVKGRFTISRDNAKNTVYLQMNSLKPEDTAVYYCAKRTKFYYTGSGYGKYYYWGQGTQVTVSS | high polyreactivity
QVQLVESGGGLVQAGGSLRLSCAASGNLFDYYAMGWYRQAPGKERELVAAISTGTSTYADSVKGRFTISRDNAKNTVYLQMNSLKPEDTAVYYCAADVGIRPLNYHPYNYWGQGTQVTVSS | low polyreactivity
QVQLVESGGGLVQAGGSLRLSCAASGNLFYGYAMGWYRQAPGKERELVAAISGSSTYYADSVKGRFTISRDNAKYTVYLQMNSLKPEDTAVYYCAVPQYLYLQAGHGFRYYYWGQGTQVTVSS | high polyreactivity
QVQLVESGGGLVQAGGSLRLSCAASGNNFVYNPMGWYRPAPGKERELVAAIDSGGSTNYADSVKGRFTISRDNAKNTVYLQMNSLKPDDTAVYYCAADYFSTYRTIYYYWGQGTQVTVSS | low polyreactivity
QVQLVESGGGLVQAGGSLRLSCAASGNNFWWNDMGWYRHAPGKERELVAAISWRGSSTYYADSVKGRFTISRDNAKYTVYLQMNSLKPEDSAVYYCAKPDRTCWLDGDYWGQGTQVTVSS | low polyreactivity
QVQLVESGGGLVQAGGSLRLSCAASGNNFYNNAMGWYRQAPGKERELVATISRRGGRTYYADSVKGRFTISRDNAKNTVYLQMNSLKPEDTSVYYCNARFHGDYDYWGQGTQVTVSS | high polyreactivity
QVQLVESGGGLVQAGGSLRLSCAASGNNFYVYAMGWYRQATGKERELVAAIRWSGGSTYYADSVKGRFTISRDNGKNTVYLQMNSLKPEDTAVYYCAADYYLYEYEYWGQGTQVTVSS | high polyreactivity
QVQLVESGGGLVQAGGSLRLSCAASGNPFTWYTMGWYRPAPGKERDLVAVSTSDGSKYYADSVKGRFTISRDNAKNTVYLQMNSLKPEDTAVYYCNAGGGTNYGSGYWYGYYYWGQGTQVTVSS | low polyreactivity
QVQLVESGGGLVQAGGSLRLSCAASGNSFPYYDMGWYRQAPGKERELVAAITSSASGTYYADSVKGRFTISRDNAKNTVYLQMNSLKPEDNAVYYCAAGVFFFTFDYWGQGTQVTVSS | low polyreactivity
QVQLVESGGGLVQAGGSLRLSCAASGNTDVGYAMGWYRQAPGKETEFVAAISSRTGRTYYADTVKGRFTISRDNAKNTVFLQMISLKPEDTAVYYCAAVRGAPRYRYDYWGQGTQVTVSS | high polyreactivity
QVQLVESGGGLVQAGGSLRLSCAASGNTFAENAMGWYRQAPGKERELVDAISNGGTTNYADSVKGRFTISRDNAKNTVYLQMNSLKPEDTAVYYCNAKFGISQPGHSGLLKMDYWGQGTQVTVSS | low polyreactivity
QVQLVESGGGLVQAGGSLRLSCAASGNTFAQNTMGWYRQAPGKEREFVAGITFSGTGTYYADSVKGRFTISRDNAKNTVYLQMNSLKPEDTAVYYCAADTPTPGLFYWFYPHRGYWGQGTQVTVSS | low polyreactivity
QVQLVESGGGLVQAGGSLRLSCAASGNTFATYAMGWYRQAPGKERELVAAITWSGGSTYYADSVKGRFTISRDNAKNNVYLQMNSLKPEDTAVYYCAADYLYYAIPAYYWDTGYDYWGQGTQVTVSS | low polyreactivity
QVQLVESGGGLVQAGGSLRLSCAASGNTFAVNAMVWSRQAPGKERELVAAISRTGGRTYYADSVKGRFTISRDNAKNTVYLQMNSLKPEDTAVYYCAAEYYYTSQLAKYHYGYEYWGQGTQVTVSS | high polyreactivity
QVQLVESGGGLVQAGGSLRLSCAASGNTFAYYAMGWYRQAPGKERELVAAITSTGVRTYYADSVKGRFTISRDNAKNTVYFQMNSLKPEDTAVYYCNAEYWRVWYLHYYYEYDYWGQGTQVTVSS | high polyreactivity
QVQLVESGGGLVQAGGSLRLSCAASGNTFCPYAMGWYRPAPGKERELVARISRSGSSTYYADSVKGRFTISRDNAKNTVYLQMNSLKPEDSAVYYCARGRTIRSSRTVGSWGQGTQVTVSS | high polyreactivity
QVQLVESGGGLVQAGGSLRLSCAASGNTFFIYAMGWYRPAPGKERELVAAITYSGGGTYYADSVKGRFTISRDNAKNTVYLQMYSLKPDDTAVYYCAADFYTGWSYIYDYWGHGTQVTVSS | high polyreactivity
